Laboratory results reported in the RNAGym collection of RNA variant scans (doi:10.1073/pnas.2313332121).
Variants at the floor of the assay were thinned out.

B1: TPR 5TU (parent)
chain: GGAUCUUCUCGAUCUAACAAAAAAGACAAAUCUGCCACAAAGCUUGAGAGCAUCUUCGGAUGCAGAGGCGGCAGCCUUCGGUGGCGCGAUAGCGCCAACGUUCUCAACUAUGACACGCAAAACGCGUGCUCCGUUGAAUGGAGUUUAUCAUG

Variants of: B1
Assay: polymerase ribozyme fitness, log enrichment relative to wild type (log ratio); higher = more active; in vitro selection for triplet polymerase activity
Procedure, shortened: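 Each subunit of a heterodimeric triplet polymerase ribozyme was represented by a PCR-built, transcribed mutant library that underwent triplicate single-round in vitro selection with frozen incubation at −7 °C. Extended constructs were recovered by gel excision, streptavidin-bead capture and RT-PCR, and Illumina sequencing of input and output libraries kept genotypes with ≥10 input reads and ≥1 read per output. Fitness is the logarithm of genotype enrichment relative to wild-type enrichment, from inverse-variance-weighted replicate averages, with a logarithm base of 2.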
For GGAUCUUCUCGAUCUAACAAAAAAGACAAAUCUGCCACAAAGCUUGAGAGCAUCUUCGGAUACAGAGGCGGCAGCAUUAGGUGGCGCGAUAGCGCAAACGUUCUCAACUAUGACACGCAAAACGCGUGCUCCGUUGAAUGGAGUUUAUCAUG [G62A C76A C79A C96A], the “polymerase ribozyme fitness (log ratio)” value was at most -4.2. In the case of GGAUCUUCUCGAUCUAACAAAAAAGACAAAUCUGCCACAAAGCUUGAGAGCAUCUUCGGAUACAGAGGCGGCAGCCUUCGUUGGCGCGAUAGCGACAACGUUCUCAACUAUGACACGCAAAACGCUUGCUCCGUUGAAUGGAGUUUAUCAUG [G62A G81U C95A G126U], the “polymerase ribozyme fitness (log ratio)” value is reported as 0.493. In the case of GGAUCUUCUCGAUCUAACAAAAAAGACAAAUCUGCCACAAAGCUUGAGAGCAUCUUCGGAUACAGAGGCGGCAGCCUUCGGUGGCGCGAUAGCGCCAACGUUCUCAACUAUGACAUGCAAAACGCGUGCUCCGUUGAAUGGAGUUUAUCAUG [G62A C116U], the “polymerase ribozyme fitness (log ratio)” value is reported as -0.0465. With GGAUCUUCUCGAUCUAACAAAAAAGACAAAUCUGCCACAAAGCUUGAGAGCAUCUUCGGAGGCAGAGGCGGCAGCCUUCGGUGGCGCAAUAGCGCCAACGUUCUCAACUAUGACACGCAAAACGCGUGCUCCGUUGAAUGGAGUUUAUCAUG [U61G G88A] the “polymerase ribozyme fitness (log ratio)” value was -4.18. For GGAUCUUCUCGAUCUAACAAAAAAGACAAAUCUGCCACAAAGCUUGAGAGCAUCUUCGGAUACAGAGGCGGCAGCCUUCGGUGGCGCGAUAGAGCCAACGUUCUCAACUAUGACACGCAAAACGCGUGCUCCGUUGAAUGGAGUUUAUCAUG [G62A C93A], the “polymerase ribozyme fitness (log ratio)” value was -1.93. For GGAUCUUCUCGAUCUAACAAAAAAGACAAAUCUGCCACAAAGCUUGAGAGCAUCUUCGGAUACCGAGGCGGCAGCCUUCGGUGGUGCGAUAGCGGCAACGUUCUGAACUAUGACACGCAAUACGCGUGCUCCGGUGAAGGGAGUUUAUCACG [G62A A64C C85U C95G C105G A121U U134G U139G U151C], the “polymerase ribozyme fitness (log ratio)” value was at most -4.2. In the case of GGAUCUUCUCGAUCUAACAAAAAAGACAAAUCUGCCACAAAGCUUGAGAGCAUCUUCGGAUCCAGAGGCGGCAGCCUUCGGUGGCGCGAUAGCGCCAACGUUCUCAACUAUGACACGCAAAACGCGUGCUCCGUUGCAUGGAGUUUAGCAUG [G62C A137C U148G], the “polymerase ribozyme fitness (log ratio)” value is reported as at most -4.2. For GGAUCUUCUCGAUCUAACAAAAAAGACAAAUCUGCCACAAAGCUUGAGAGCAUCUUCGGAGGCAGAGGCGUCAGCCUUCGGUGGCGUGAUAGCGCCAACGUUCUCAACUAUGACACGCAAAACGCGUGCUCCGUUGAAUGGAAUUUAUCAUG [U61G G71U C87U G143A], the “polymerase ribozyme fitness (log ratio)” value was at most -4.2. In the case of GGAUCUUCUCGAUCUAACAAAAAAGACAAAUCUGCCACAAAGCUUGAGAGCAUCUUCGGAUACAGAGGCGGCAGCCUUCGGUGACGCGAUAGCGCCAACGUUCUCAACUAUGACACGCAAAACGCGUGCUCCGUAGAAUGGAGUUUAUCAUG [G62A G84A U135A], the “polymerase ribozyme fitness (log ratio)” value is reported as -1.93. In the case of GGAUCUUCUCGAUCUAACAAAAAAGACAAAUCUGCCACAAAGCUUGAGAGCAUCUUCGGAUACAGAGGCGGCAGUCUUCGGUGGCGCGAUAGCGCCAACGUUCUCAACUAUGACACGCAAAACGCGUGCUCCGUUGAAUGGAGUUUAUCAUG [G62A C75U], the “polymerase ribozyme fitness (log ratio)” value is reported as -0.822. For GGAUCUUCUCGAUCUAACAAAAAAGACAAAUCUGCCACAAAGCUUGAGAGCAUCUUCGGAUACAGAGGCGGCAGCCUUCGGAGGCGCGAUAGCGCCAACGUUCUCAACUAUGACACGCAAAACGCGUGCUCCGUUGAAUGGAGUUUAUCAUG [G62A U82A], the “polymerase ribozyme fitness (log ratio)” value was -0.432. In the case of GGAUCUUCUCGAUCUAACAAAAAAGACAAAUCUGCCACAAAGCUUGAGAGCAUCUUCGGAGGCAGAGGCGGCAGCCUUCGGUAGCGCGAUAGCGCCAACGUUCUCAACUAUGACACGCAAAACGCGUGCUCCGUUGAAUGGAGUUUAUCAUG [U61G G83A], the “polymerase ribozyme fitness (log ratio)” value is reported as -1.01. For GGAUCUUCUCGAUCUAACAAAAAAGACAAAUCUGCCACAAAGCUUGAGAGCAUCUUCGGAUACAGAAGCGGUAGGCUUCGGUGGCGCGAUAGGGUCAACGUUCUCAACUAUGACACGCAGAACGCGUGCUCCGUUGAAUGGAGUUUAUCAUG [G62A G67A C72U C75G C93G C95U A120G], the “polymerase ribozyme fitness (log ratio)” value was at most -4.2. In the case of GGAUCUUCUCGAUCUAACAAAAAAGACAAAUCUGCCACAAAGCUUGAGAGCAUCUUCGGAGACAGAGGCGGCAGCCUUCGGUGGCGUGAUAGCGCCAACGUUCUCAACUAUGACACGCAAAACGCGUGCUCCGUUGAAUGGAGUUUAUCAUG [U61G G62A C87U], the “polymerase ribozyme fitness (log ratio)” value is reported as -1.28. In the case of GGAUCUUCUCGAUCUAACAAAAAAGACAAAUCUGCCACAAAGCUUGAGAGCAUCUUCGGAUACAGAGGCGGCAGCCUUCGGUGGCGCGAUAGCGCCAACGUUUUCAACUAUGACACGCAAAACGCGUGCUCCGUUGAAUGGAGUUUAUCAUG [G62A C103U], the “polymerase ribozyme fitness (log ratio)” value is reported as -1.66. With GGAUCUUCUCGAUCUAACAAAAAAGACAAAUCUGCCACAAAGCUUGAGAGCAUCUUCGGAGGCAGAGGCGGCAGCCUUCGGUGACGCGAUAGCGCCAACGUUCUCAACUAUGACACGCAAAACGCGUGCUCCGUUGAACGGAGUCUAUCAUG [U61G G84A U139C U145C] the “polymerase ribozyme fitness (log ratio)” value was at most -4.2. In the case of GGAUCUUCUCGAUCUAACAAAAAAGACAAAUCUGCCACAAAGCUUGAGAGCAUCUUCGGAUACAGAGGCGGCAGCCUUCGGUGGCACGAUAGCGCCAACGUUCUCAACUAUGACACGCAAACCGCGUGCUCCGUUGAAUGGAGUUUAUCAUG [G62A G86A A122C], the “polymerase ribozyme fitness (log ratio)” value is reported as -1.02. With GGAUCUUCUCGAUCUAACAAAAAAGACAAAUCUGCCACAAAGCUUGAGAGCAUCUUCGGAGGCAGAGGCGGCAGCCUUCGGUGGCGCGAUAGCACCAACGUUCUCAAGUAUGACACGCAAAACGCGUGCUCCGUUGAAUGGAGUUUAUCAUG [U61G G94A C108G] the “polymerase ribozyme fitness (log ratio)” value was at most -4.2. With GGAUCUUCUCGAUCUAACAAAAAAGACAAAUCUGCCACAAAGCUUGAGAGCAUCUUCGGAGGCAGAGGCGGCAGCCUUCGGUGGCGCGAUACCGUCAACGUUCUUCACCAUGACACGCAAAACGCGUGCUCCGUUGAGUGGAGUUUAUCAUG [U61G G92C C95U C105U A106C U109C A138G] the “polymerase ribozyme fitness (log ratio)” value was at most -4.2.
